Measurements reported in patent publication US20210155697A1 (UNITY BIOTECHNOLOGY, published 2021).
Substitutions are numbered along the chain they refer to. Values belong to the binder of their own block, whether it stands above or below them.

Key:
[1] = target: T1, human full-length Tie2 on cells (human, UniProt Q02763 23-1124); experiment: flow cytometry on HUVEC; Apparent Kd (EC50 binding)
T1 construct: used here for Tie2 native on HUVEC and full-length Tie2 overexpressed on HEK293; also called Human Tie2; huTie2
Description: (§1) Briefly, expression plasmids containing the full-length Tie2 coding sequence for each species were used to transfect primary human endothelial cells (HUVECs) as well as human embryonic kidney (HEK293) cells. A stable cell population was selected by treating transfectants with puromycin antibiotic over the course of 2 weeks and single cell clones were generated using fluorescence activated cell sorting. Upon confirmation of cell surface expression of these Tie2 variants, cell lines were used to determine apparent Kd (EC50) values of anti-Tie2 antibodies on the various Tie2 proteins. […] Cells were labeled with decreasing concentrations of anti-Tie2 antibodies #1, #2, and #3 (10, 5, 2.5, 1, […], 0.63, 0.31, and 0.16 ug/mL) or non-specific hIgG1 antibody (10 ug/mL), followed by labeling with a rabbit anti-human IgG antibody conjugated to an Alexa Fluor 488 fluorophore (20 ug/ml). EC50 values were generated using ForeCyt™ software.

[2] = target: T1, human full-length Tie2 on cells; experiment: cell-based or functional assay
[3] = target: T2, cynomolgus monkey full-length Tie2 on HEK293 cells (cynomolgus monkey, UniProt G7PS68 23-1124); experiment: flow cytometry on HEK/cyno Tie2 cells; Apparent Kd (EC50 binding)
T2 construct: whole, on cells; also called HEK293/Cyno Tie2; HEK/cyno Tie2
Description: as §1

[4] = target: T1, human full-length Tie2 on cells; experiment: flow cytometry on HEK293/Human Tie2 cells, mAb at 10 ug/mL; set-up: unit not given here
Description: as §1
Target sequence in this assay (Q02763 23-1124 limits assumed): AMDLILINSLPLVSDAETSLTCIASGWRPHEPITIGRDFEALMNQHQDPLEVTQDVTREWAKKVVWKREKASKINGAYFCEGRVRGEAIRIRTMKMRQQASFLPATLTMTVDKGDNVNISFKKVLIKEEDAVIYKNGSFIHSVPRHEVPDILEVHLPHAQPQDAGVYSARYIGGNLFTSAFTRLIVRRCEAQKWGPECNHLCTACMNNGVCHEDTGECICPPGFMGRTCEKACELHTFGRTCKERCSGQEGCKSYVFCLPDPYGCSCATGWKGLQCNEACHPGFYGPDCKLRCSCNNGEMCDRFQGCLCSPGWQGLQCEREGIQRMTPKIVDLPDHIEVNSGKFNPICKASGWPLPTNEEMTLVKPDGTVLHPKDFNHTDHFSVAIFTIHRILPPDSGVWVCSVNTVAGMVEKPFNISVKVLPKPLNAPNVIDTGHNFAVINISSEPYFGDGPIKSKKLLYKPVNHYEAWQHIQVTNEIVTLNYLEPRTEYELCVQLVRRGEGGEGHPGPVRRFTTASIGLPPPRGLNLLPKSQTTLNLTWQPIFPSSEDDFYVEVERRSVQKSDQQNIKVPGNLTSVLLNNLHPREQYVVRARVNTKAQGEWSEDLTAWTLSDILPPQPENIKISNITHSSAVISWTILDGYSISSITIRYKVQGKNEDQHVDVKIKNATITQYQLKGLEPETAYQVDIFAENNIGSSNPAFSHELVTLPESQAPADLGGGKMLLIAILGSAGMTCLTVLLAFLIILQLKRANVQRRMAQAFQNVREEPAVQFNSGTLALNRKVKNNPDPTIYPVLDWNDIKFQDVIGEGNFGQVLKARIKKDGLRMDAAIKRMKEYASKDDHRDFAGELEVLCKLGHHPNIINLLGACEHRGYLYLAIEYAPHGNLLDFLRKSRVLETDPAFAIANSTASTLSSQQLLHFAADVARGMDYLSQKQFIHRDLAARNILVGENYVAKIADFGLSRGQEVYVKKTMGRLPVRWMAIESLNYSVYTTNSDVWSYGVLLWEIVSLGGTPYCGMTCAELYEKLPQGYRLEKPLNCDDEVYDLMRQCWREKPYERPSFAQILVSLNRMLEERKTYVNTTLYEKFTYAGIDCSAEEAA

[5] = target: T3, murine full-length Tie2 on HEK293 cells (mouse, UniProt Q02858 23-1122); experiment: flow cytometry on HEK293/Murine Tie2 cells, mAb at 10 ug/mL
T3 construct: whole, on cells; also called HEK293/Murine Tie2; HEK/mTie2
Description: as §1
Target sequence in this assay (Q02858 23-1122): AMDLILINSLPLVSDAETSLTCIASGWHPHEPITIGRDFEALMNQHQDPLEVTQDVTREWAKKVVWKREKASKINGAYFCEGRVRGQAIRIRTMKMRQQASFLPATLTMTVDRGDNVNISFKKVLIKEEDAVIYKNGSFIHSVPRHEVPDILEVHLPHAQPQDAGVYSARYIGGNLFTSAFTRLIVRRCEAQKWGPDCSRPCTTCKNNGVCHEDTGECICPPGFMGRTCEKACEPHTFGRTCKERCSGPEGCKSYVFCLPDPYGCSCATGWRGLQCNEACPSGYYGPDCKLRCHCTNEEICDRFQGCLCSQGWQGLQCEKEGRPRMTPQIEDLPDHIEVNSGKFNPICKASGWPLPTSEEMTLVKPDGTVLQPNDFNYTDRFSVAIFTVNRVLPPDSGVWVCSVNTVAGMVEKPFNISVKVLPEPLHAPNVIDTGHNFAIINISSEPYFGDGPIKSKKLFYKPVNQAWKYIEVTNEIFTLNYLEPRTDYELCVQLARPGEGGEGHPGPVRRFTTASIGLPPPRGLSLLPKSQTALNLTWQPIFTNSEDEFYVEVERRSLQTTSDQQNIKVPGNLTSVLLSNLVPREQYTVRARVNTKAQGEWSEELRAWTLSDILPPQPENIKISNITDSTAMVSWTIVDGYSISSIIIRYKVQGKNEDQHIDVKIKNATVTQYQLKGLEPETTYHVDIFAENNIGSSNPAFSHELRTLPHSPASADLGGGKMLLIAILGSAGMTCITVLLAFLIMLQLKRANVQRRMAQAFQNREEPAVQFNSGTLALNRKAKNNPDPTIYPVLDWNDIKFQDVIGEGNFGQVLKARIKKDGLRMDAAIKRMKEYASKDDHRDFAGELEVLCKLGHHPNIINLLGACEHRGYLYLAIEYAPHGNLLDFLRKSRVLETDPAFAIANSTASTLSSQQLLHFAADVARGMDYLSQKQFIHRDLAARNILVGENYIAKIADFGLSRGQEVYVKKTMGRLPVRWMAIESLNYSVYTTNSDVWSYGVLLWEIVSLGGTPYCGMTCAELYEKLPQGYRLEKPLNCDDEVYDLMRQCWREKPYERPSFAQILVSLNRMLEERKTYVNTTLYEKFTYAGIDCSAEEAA

[6] = target: T1, human full-length Tie2 on cells; experiment: flow cytometry on HEK/huTie2 cells; Apparent Kd (EC50 binding)
Description: as §1

[7] = target: T2, cynomolgus monkey full-length Tie2 on …; experiment: flow cytometry on HEK293/Cyno Tie2 cells, mAb at 10 ug/mL
Description: as §1

[8] = target: T4, rat full-length Tie2 on HEK cells (rat, UniProt A0ABK0L6J5 19-1116); experiment: flow cytometry on HEK/ratTie2 cells; Apparent Kd (EC50 binding)
T4 construct: whole, on cells; also called HEK/ratTie2
Description: as §1

[9] = target: T3, murine full-length Tie2 on HEK293 cells; experiment: flow cytometry on HEK/mTie2 cells; Apparent Kd (EC50 binding)
Description: as §1

[10] = target: T5, rabbit full-length Tie2 on HEK cells (rabbit); experiment: flow cytometry on HEK/RbTie2 cells; Apparent Kd (EC50 binding)
T5 chain: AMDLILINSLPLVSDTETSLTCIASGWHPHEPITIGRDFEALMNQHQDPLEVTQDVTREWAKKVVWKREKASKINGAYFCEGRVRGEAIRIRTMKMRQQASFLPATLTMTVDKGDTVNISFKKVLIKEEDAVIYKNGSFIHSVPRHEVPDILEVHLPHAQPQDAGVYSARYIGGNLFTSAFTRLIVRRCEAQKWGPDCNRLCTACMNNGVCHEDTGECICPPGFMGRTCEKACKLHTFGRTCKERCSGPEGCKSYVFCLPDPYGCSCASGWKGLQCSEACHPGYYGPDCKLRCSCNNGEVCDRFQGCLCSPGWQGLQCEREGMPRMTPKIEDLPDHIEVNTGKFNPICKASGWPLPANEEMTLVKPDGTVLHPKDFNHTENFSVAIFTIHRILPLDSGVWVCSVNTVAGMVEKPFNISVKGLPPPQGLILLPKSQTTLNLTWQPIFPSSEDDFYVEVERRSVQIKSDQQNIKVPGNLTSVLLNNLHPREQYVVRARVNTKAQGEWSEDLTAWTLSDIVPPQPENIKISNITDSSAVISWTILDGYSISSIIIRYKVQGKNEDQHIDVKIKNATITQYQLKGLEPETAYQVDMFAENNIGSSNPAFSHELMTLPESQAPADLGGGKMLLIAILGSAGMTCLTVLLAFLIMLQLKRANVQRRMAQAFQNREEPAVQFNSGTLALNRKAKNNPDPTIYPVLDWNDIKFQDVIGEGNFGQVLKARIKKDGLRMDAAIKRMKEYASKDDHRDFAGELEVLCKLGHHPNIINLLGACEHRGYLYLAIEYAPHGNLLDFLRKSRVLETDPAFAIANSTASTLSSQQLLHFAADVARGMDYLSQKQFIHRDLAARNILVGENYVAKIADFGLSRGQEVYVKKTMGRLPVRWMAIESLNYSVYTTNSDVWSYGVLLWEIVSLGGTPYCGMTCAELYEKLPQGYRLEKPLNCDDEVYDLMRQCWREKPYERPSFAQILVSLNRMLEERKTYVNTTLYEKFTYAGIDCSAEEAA
Description: as §1

[11] = target: T6, recombinant mouse Tie2 ECD protein (mouse, UniProt Q02858 23-746); experiment: SPR (BIACORE), Tie2 ECD immobilized on CM5, Fab as analyte, 25 C
T6 construct: extracellular domain
T6 sequence (Q02858 23-746): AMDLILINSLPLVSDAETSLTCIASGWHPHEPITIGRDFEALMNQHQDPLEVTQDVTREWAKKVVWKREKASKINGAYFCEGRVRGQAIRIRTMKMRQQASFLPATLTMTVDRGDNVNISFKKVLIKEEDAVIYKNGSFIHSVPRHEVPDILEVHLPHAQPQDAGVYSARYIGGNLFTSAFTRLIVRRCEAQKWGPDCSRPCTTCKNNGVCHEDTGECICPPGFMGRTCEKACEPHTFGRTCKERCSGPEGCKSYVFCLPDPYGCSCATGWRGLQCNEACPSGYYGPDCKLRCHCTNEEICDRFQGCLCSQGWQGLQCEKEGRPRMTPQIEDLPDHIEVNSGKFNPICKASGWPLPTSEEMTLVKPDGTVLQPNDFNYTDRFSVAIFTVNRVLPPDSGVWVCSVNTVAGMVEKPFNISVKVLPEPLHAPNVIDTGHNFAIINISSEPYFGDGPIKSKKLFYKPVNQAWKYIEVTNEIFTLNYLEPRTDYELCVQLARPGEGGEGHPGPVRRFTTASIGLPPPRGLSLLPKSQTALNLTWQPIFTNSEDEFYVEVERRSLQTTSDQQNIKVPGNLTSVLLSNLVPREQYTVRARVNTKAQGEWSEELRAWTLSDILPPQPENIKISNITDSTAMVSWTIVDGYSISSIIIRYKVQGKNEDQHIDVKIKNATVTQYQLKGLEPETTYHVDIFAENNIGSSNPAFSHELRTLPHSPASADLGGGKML
Experimental: (§2) BIACORE™ (BIAcore, Inc., Piscataway, N.J.) was performed at 25° C. with immobilized human, rat or mouse Tie2 ECD antigens on carboxymethylated dextran biosensor chips (CM5) chips at about 10 response units (RU). CM5 chips were activated with N-ethyl-N′-(3-dimethylaminopropyl)-carbodiimide hydrochloride (EDC) and N-hydroxysuccinimide (NFIS) according to the supplier's instructions. All Tie2 ECD antigens were diluted with 10 mM sodium acetate, pH 4.8, to […] before injection at a flow rate of 5 μl/minute to achieve approximately 10 RU of coupled protein. Following the injection of each Tie2 ECD, 1 M ethanolamine was injected to block unreacted groups. For kinetics measurements, two-fold serial dilutions of the antibody clone #3 Fab (0.78 nM to 500 nM) were injected in PBS with 0.05% polysorbate 20 (TWEEN™-20) surfactant (PBST) at 25° C. at a flow rate of approximately 25 μl/min. Association rates (kon) and dissociation rates (koff) were calculated using a simple one-to-one Langmuir binding model (BIACORE™ Evaluation Software version 3.2) by simultaneously fitting the association and dissociation sensorgrams. The equilibrium dissociation constant (KD) was calculated as the ratio koff/kon. See, for example, Chen et al., J. Mol. Biol. 293:865-881 (1999).

Rat Tie2 ECD = target: T7, Rat Tie2 ECD (rat, UniProt A0ABK0L6J5 19-740); experiment: as above
T7 construct: extracellular domain
Experimental: as §2

[12] = target: T8, recombinant human Tie2 ECD protein (human, UniProt Q02763 23-748); experiment: as above
T8 construct: also called human Tie2 extracellular domain
T8 sequence (Q02763 23-748 limits assumed): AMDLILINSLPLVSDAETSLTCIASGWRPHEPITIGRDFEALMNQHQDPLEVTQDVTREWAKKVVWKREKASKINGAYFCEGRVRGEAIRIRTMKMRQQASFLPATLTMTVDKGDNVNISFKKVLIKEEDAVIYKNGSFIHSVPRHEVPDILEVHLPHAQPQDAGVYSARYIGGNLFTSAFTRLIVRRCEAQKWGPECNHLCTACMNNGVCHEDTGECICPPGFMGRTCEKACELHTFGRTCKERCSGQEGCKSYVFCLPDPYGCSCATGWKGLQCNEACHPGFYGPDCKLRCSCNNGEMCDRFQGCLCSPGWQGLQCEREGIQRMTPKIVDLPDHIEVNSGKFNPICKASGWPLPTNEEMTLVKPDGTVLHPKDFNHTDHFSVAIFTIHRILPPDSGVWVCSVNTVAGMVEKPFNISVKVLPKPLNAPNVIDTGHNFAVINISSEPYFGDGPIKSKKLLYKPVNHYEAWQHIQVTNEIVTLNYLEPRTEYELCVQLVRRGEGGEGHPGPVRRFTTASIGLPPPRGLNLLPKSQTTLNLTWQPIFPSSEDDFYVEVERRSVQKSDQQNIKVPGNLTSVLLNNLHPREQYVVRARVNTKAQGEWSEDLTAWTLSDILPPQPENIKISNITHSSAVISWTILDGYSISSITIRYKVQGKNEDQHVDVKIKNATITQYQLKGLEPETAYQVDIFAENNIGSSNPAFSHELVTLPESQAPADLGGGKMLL
Experimental: as §2

- EC50 [1]: 2 nM
- EC50 of pAkt relative to total Akt in HUVEC cells (western blot, quantitative fluorescence imaging) [2]: 0.91 nM
- EC50 [3]: 7.8 nM
- Cross-Reactivity Screen (mAb at 10 ug/mL) [4]: 60.7
- Cross-Reactivity Screen (mAb at 10 ug/mL) [5]: 0.4
- EC50 [6]: 8 nM
- Cross-Reactivity Screen (mAb at 10 ug/mL) [7]: 74.1
B1: human anti-Tie2 antibody #1 (antibody, V domains shown)
VH: DVQLVESGGGVVRPGESLRLSCAASGFTFSSYAMSWVRQAPGEGLEWVARISDYTIYYADSVKGRFTISRDNSKNTLYLQMNSLRAEDTAVYYCAKSGPKSGKYWNNFFDSWGLGTLVTVSS
VL: EIVLTQSPGTLSVSPGERATLTCRASQSVKTDLAWYQQKPGQAPRLLIYGATTRATGIPARFSGSGSGTEFTLTITNLQSEDFAVYYCQQYYVWPPLTFGGGTKVEIK
notes: also called Ab #1; Antibody Clone # 1

- EC50 [8]: 4.6 nM
- EC50 [1]: 1.7 nM
- EC50 of pAkt relative to total Akt in HUVEC cells (western blot, quantitative fluorescence imaging) [2]: 0.45 nM
- EC50 [9]: 6.3 nM
- EC50 [3]: 3.7 nM
- Cross-Reactivity Screen (mAb at 10 ug/mL) [4]: 40.2
- Cross-Reactivity Screen (mAb at 10 ug/mL) [5]: 32.5
- EC50 [6]: 1.9 nM
- Cross-Reactivity Screen (mAb at 10 ug/mL) [7]: 40.2
- EC50 [10]: 3.3 nM
B2: human anti-Tie2 antibody #3 (antibody, V domains shown)
VH: DVQLVESGGGVVRPGESLRLSCTASGFTFDSYGMSWVRQAPGKGLEWVSSINVGDNTYYADSVRGRFIISRDSSRNTLYLQMNSLTAEDTAVYYCANWNSFFDYWGLGTLVTVSS
VL: EIVLTQSPGTLSLSPGEIATLSCRASQNVRSDLAWYQQKPGQAPRLLIYDASNRATGIPDRFSGSGSGTDFTLTISSLQSEDFAVYYCQQYSNWPPLTFGGGTKVEIK
notes: also called Ab #3; Antibody Clone # 3

The next lines start with the binder.

B3: antibody clone #3 Fab (Fab, V domains shown)
VH: B2 VH
VL: B2 VL
- Kd [11]: 3.21 nM
- koff [11]: 0.000876 s⁻¹
- kon [11]: 273000 M⁻¹ s⁻¹
- Kd (Rat Tie2 ECD): 2.56 nM
- kon (Rat Tie2 ECD): 254000 M⁻¹ s⁻¹
- Kd [12]: 2.34 nM
- koff [12]: 0.000377 s⁻¹
- kon [12]: 161000 M⁻¹ s⁻¹

B4: anti-Tie2 antibody #5 (antibody, V domains shown)
VH: DVQLVESGGGVVRPGESLRLSCTASGFSFDVYAMTWVRQAPGKGLEWLTLISGTGRMTYYADSVKGRFTVSRDNSKKTLYLQMNSLRAEDTAVYYCAKDPFGHGFFDYWGLGTLVTVSS
VL: B2 VL with I18R, N28T, R30G, D32K, N53T, S92N
notes: also called Ab #5; Antibody Clone # 5
- Cross-Reactivity Screen (mAb at 10 ug/mL) [4]: 60.2
- Cross-Reactivity Screen (mAb at 10 ug/mL) [5]: 0.2
- Cross-Reactivity Screen (mAb at 10 ug/mL) [7]: 73.1

B5: Angiopoietin-1 (ligand, UniProt Q15389 20-498, looked up)
chain: SNQRRSPENSGRRYNRIQHGQCAYTFILPEHDGNCRESTTDQYNTNALQRDAPHVEPDFSSQKLQHLEHVMENYTQWLQKLENYIVENMKSEMAQIQQNAVQNHTATMLEIGTSLLSQTAEQTRKLTDVETQVLNQTSRLEIQLLENSLSTYKLEKQLLQQTNEILKIHEKNSLLEHKILEMEGKHKEELDTLKEEKENLQGLVTRQTYIIQELEKQLNRATTNNSVLQKQQLELMDTVHNLVNLCTKEGVLLKGGKREEEKPFRDCADVYQAGFNKSGIYTIYINNMPEPKKVFCNMDVNGGGWTVIQHREDGSLDFQRGWKEYKMGFGNPSGEYWLGNEFIFAITSQRQYMLRIELMDWEGNRAYSQYDRFHIGNEKQNYRLYLKGHTGTAGKQSSLILHGADFSTKDADNDNCMCKCALMLTGGWWFDACGPSNLNGMFYTAGQNHGKLNGIKWHYFKGPSYSLRSTTMMIRPLDF
- EC50 of pAkt relative to total Akt in HUVEC cells (western blot, quantitative fluorescence imaging) [2]: 0.54 nM

B6: human anti-Tie2 antibody #2 (antibody, V domains shown)
VH: DVQLVESGGGVVRPGESLRLSCAASGFSFINFAMTWVRQAPGEGPEWVSLISDDGRGNRPYYADSVKGRFTISRDNSKNILYLQMNSLRVEDTATYYCAKVSWDVFFDYWGLGTVVTVSS
VL: EIVLTQSPGTVSLSPGERVTLSCRASQPIDVYLAWYQQKPGQAPRLLIYGANRRAIDIPDRFSGSGSGTEFTLTINSLQNEDFAVYFCQQYMTWPPVTFGGGTKVEIK
notes: also called Ab #2; Antibody Clone # 2
- EC50 [8]: 1.4 nM
- EC50 [1]: 1 nM
- EC50 of pAkt relative to total Akt in HUVEC cells (western blot, quantitative fluorescence imaging) [2]: 0.48 nM
- EC50 [3]: 7.7 nM
- Cross-Reactivity Screen (mAb at 10 ug/mL) [4]: 64.9
- Cross-Reactivity Screen (mAb at 10 ug/mL) [5]: 41.7
- EC50 [6]: 2.7 nM
- Cross-Reactivity Screen (mAb at 10 ug/mL) [7]: 53.2
- EC50 [10]: 4.1 nM

B7: anti-Tie2 antibody #31 (antibody, V domains shown)
VH: B6 VH with L18P, V115L
VL: B6 VL
notes: also called Ab #31; Antibody Clone # 31
- Cross-Reactivity Screen (mAb at 10 ug/mL) [4]: 65.3
- Cross-Reactivity Screen (mAb at 10 ug/mL) [5]: 28.5
- Cross-Reactivity Screen (mAb at 10 ug/mL) [7]: 47.5

B8: anti-Tie2 antibody #6 (antibody, V domains shown)
VH: B4 VH
VL: EIVLTQSPGTLTLSPGETATLTCRASQSVNRNLAWYQEKPDQAPRLLIYDARTRATGVPDRFSGSGSGTDFTLTINSLQSEDFAVYVCQQYYDWPPFTFGGGTKVEIK
notes: also called Ab #6; Antibody Clone # 6
- Cross-Reactivity Screen (mAb at 10 ug/mL) [4]: 63.7
- Cross-Reactivity Screen (mAb at 10 ug/mL) [5]: 0.3
- Cross-Reactivity Screen (mAb at 10 ug/mL) [7]: 78.8
